# Results from the RNAGym collection of RNA variant scans (doi:10.1073/pnas.2313332121).
# B1: TPR t1 (parent)
# chain: GACCAAUCUGCCCUCAGAGCUCGAGAACAUCUUCGGAUGCAGAGGAGGCAGGCUUCGGUGGCGCGAUAGCGCCAACGUCCUCAACCUCCAAUGCAUCCCACCACAUGAUGAUGCCUGAAGAGCCUUGGUUUUUUG
# Variants of: B1
# Assay: polymerase ribozyme fitness, log enrichment relative to wild type (log ratio); higher = more active; in vitro selection for triplet polymerase activity
# In short: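 Libraries of mutants in each subunit of a heterodimeric triplet polymerase ribozyme were generated by PCR and transcribed. In triplicate, each went through one in vitro selection round: annealing with biotinylated primer, partner subunit and triplets; frozen incubation at −7 °C; gel excision of extended constructs; streptavidin-bead capture; RT-PCR. Fitness, taken from Illumina sequencing of input and output libraries, is the logarithm of a genotype's enrichment over wild-type enrichment, averaged across replicates with inverse-variance weights. The logarithm is base 2, and genotypes needed ≥10 input reads and ≥1 read per output to be kept.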
row,Variant,polymerase ribozyme fitness (log ratio)
1,A18G U32A C76U C124G,-2.81
2,G93A C123A,0.264
3,A5U A29C U78G C101U,-3.29
4,G63A G120U,-0.702
5,C20U G42A,-2.49
6,A2U C115A,-2.22
7,C73U A84U G110U,-1.67
8,C12U G48U,-0.505
9,C4A G61C,-3.08
10,C11G C73U C114U,-1.42
11,A100U,-0.595
12,G35C C88U,-4.03
13,A50C C56A,-0.326
14,C40G C49U A74U U78A,-3.07
15,G48C U106C,-1
16,C49U G63C,-0.762
17,G36A A43U C62U G113A,-3.5
18,C73U C98A,-4.94
19,U38G U54G C64U,-4.46
20,G120A C123U,1.96
21,U59C U106G U112G,-2.31
22,G63A C88U,-1.46
23,G44U U54C C64U C102U G113A G128U,-6.53
24,C53A C72U C104U G113C,-2.1

row,Variant,polymerase ribozyme fitness (log ratio)
1,A46U C70A C85U,-3.76
2,U21A C22A C40U C73U C101A U133G,-5.39
3,C12A G47U G60A U78A,-2.01
4,G39A A46U U106A,-2.02
5,A83G C89A U106G,-4.3
6,G42U C49A G77A C123G G135U,-1.82
7,A100C U130G,-0.881
8,A46U C124A,0.552
9,A18C C20U,-1.33
10,C13G C53A,-1.86
11,C13G C104U,-0.77
12,A41C G63C G77U A91G U96G A108G U112G,-6.24
13,A26C G61U U78C C80U A83G U116G,-6.77
14,G48A U54A A84U U129A,-1.42
15,G17U G48U C70U U78C U87G U112A,-4.19
16,C13G C28G G42C,-6.24
17,C13G A41C C97A C115A G128A,-7.05
18,U87A G122A,-0.168
19,C97U G110U A111G,-3.06
20,C4U A41U G44A G45A C53U G63C,-6.08
21,A68G U112G,-2.31
22,C22G C64U U112G,-2.89
23,U59C A119G,0.816
24,A24G G58U G61C,-1.68

row,Variant,polymerase ribozyme fitness (log ratio)
1,C12A C20A G61C,-4.95
2,U7C G42C C72A C88U C115U U133A,-0.456
3,A29U C40U G60C U131A,-2.41
4,C70A G128C,-4.69
5,U59A G60A,0.122
6,G61A U67A,-6.59
7,G19U G25A C53U C64G G107C C114G,-8.12
8,A27G C98A,-7.76
9,A46G C73U U87A A91C G113A,-2.54
10,A2C C115U,-2.66
11,G93A U132A,-1.15
12,G107A C124A,-2.63
13,G63U C85A G128A,-4.29
14,A16U G51U,-4.76
15,G63C U112A,0.435
16,C8G A91G C115U,-0.682
17,A27G G69C A90C,-4.21
18,C11G G63U,-0.927
19,C88G G120A,-1.21
20,C31A C72A C104G,-6.29
21,U54C C70U,-0.253
22,C56G G69U,-0.682
23,C40U G45U G127C,-3.96
24,C40U G51C G57U C89U G120U,-3.44

row,Variant,polymerase ribozyme fitness (log ratio)
1,U59A G63A,-1.13
2,U9A G63U G120C,0.699
3,G69A A75G U96C,-3.29
4,A6U U9G A27U C34A G44U C64U,-6.87
5,C53U G63A C80A A105C G113U,-6.53
6,G61A C102U,-1.04
7,A27U U54A U112C G122A,-2.2
8,C53U U59A C89A U130G,-3.42
9,C62U A83C C88U G120A,0.0358
10,C3U G51U C80U,-2.32
11,U112A C123A,1.45
12,A75G C82U A121G C124G,1.16
13,C8G A46U C104A U106C U116C,-3.35
14,A16C G44U U78C,-4.35
15,U59A C114A,-1.7
16,A5G C62A G117C,-4.86
17,C8G A43U U54C C72G C114A A118G,-5.83
18,G42U A66U,-2.91
19,A5G C8U C34A C62U G117A,-5.35
20,A16U U96A,-2.28
21,G61U A75G C82G A100C G113U,-5.51
22,G42U U78C C94G A100C,-4.78
23,C8G C12U C97G,-3.16
24,C15U A50U C76U U78A,-3.61

row,Variant,polymerase ribozyme fitness (log ratio)
1,C4U A6G G39A C72A C85A A90G C114U,-3.29
2,U21A A37U C94U G120A,0.736
3,C72U C86G U126G,-3.16
4,A26U G35U C53U U112C C114U G117A,-7.18
5,A18C U32C A37U A50U G60A A83U,-4.99
6,C56A G63A A91C,-5.68
7,G51U C64G A83C G113U C123G G127A,-6.21
8,C62A A91C C98G A111C C115U A118U G122A U126G,-7.7
9,A6G G48U G63A,-0.619
10,C53G G77A C102U G120C U125A,-2.26
11,C56G C70A A118U,-2.37
12,C22G C72G,-2.12
13,G17C U54G C124U,-2.64
14,C115U A119U U130G,-1.35
15,C20U U96G,-1.9
16,C86G A100U G128C,-3.41
17,C20U C124G,0.389
18,G57U U132C,0.0378
19,A100C G110U U112A,-5.07
20,C53A U54A C80A C114A C124G U125A,-6.7
21,G42A C73U,-1.61
22,C12G C72G C104U C123U C124A,2.06
23,A5C C56G C80U,-1.77
24,U9C A41C G52A C98U U130G,-2.71

row,Variant,polymerase ribozyme fitness (log ratio)
1,C40U C53G,0.608
2,G45A C72U G110C,-4.39
3,G93C G110U G120A,-3.34
4,U87A U129A,-0.873
5,U9A G42A G57U C115A G127U U131A,-3.74
6,A24U C72U,-5.63
7,A37G C70U C79A,-3.05
8,C64A A66C C104A,-6.61
9,C34A U54A,-1.22
10,A37G U92C U106C G110A,-3.53
11,C11G C53U C82U,0.05
12,C22A C72G A83G C115A,-5.56
13,U54C A103G,-4.75
14,U21C U55A U78A U131A,-0.459
15,C76U C94A U106C U112C,0.627
16,A2U G52C,-3.28
17,C72U U81G C85A,-3.96
18,A46U U59C G93A U130C,-2.04
19,C85G U130A G135U,-3.18
20,U54A C64U C72U C86A,-0.948
21,A50G C99U,-3.27
22,U38G C82U,-0.857
23,U9C C12U C22G G45C C72G A100U,-4.47
24,G71C C123U,-0.362

row,Variant,polymerase ribozyme fitness (log ratio)
1,G25A C72A C86G,-6.66
2,C3U C12G C72U,-0.647
3,G44A C89U C104A U106A,-2.1
4,C11A G107C G113A C124A,-6.29
5,A2G G51A,-2.94
6,G10U U21G C64A A95G C123U U125A,-6.83
7,A6C A46U C56U,-1.22
8,G58A C114G,-3.37
9,G58A U59C,-0.583
10,C11A C13U G19A C56G C72U,-4.6
11,A6C C70G,-2.95
12,C8U C97U U116C,-0.891
13,C12G C62U,0.0184
14,A43G C72A,-1.13
15,C3U G36U G63U C88U A111U C124U,-6.17
16,U87G A121C,1.82
17,C3U C12U C53G C56U U106A A111C C123G G127A,-5.21
18,A5U C11A G42C G63A C88U U106A A121C U125A,-5.18
19,G47U G63U C85A,-3.29
20,C12A G57U G61U C89G,-5.96
21,C34A A46U A68U G71C C124G,-7.38
22,C4U G52A C62U C82G G120C,-0.476
23,C12A G19A A46C C73U G117C,-5.99
